The values that follow come from patent US6218168A, “Process for preparing O-acetylserine, L-cysteine and L-cysteine-related products” (Consortium fur elektrochemische Inudstrie GmbH, priority 1995, dated 2001).

In general, Ki refers to the dissociation constant of the complex between target and ligand, obtained from inhibition or displacement.

Test [1] has as its target T1, serine acetyltransferase of cysteine-prototrophic revertant (Escherichia coli, UniProt P0A9D4, M256I).
T1 construct: host or cells: cysteine-prototrophic revertant of a cysteine-auxotrophic strain mutagenized with ethyl methanesulfonate (Denk and Bock 1987)
The experiment in a line: Literature: end product inhibition of serine acetyltransferase from a cysteine-prototrophic revertant. The format is biochemical. As for the experimental part:
According to the literature reference mentioned, the feedback resistance of this mutant is elevated 10-fold. Consequently, the Ki of this mutant is approx. 0.01 mM, when comparison is made with the wild-type form.

Test [2] addresses wild-type form of serine acetyltransferase. To be noted: 0.1 mM acetyl-coenzyme A and 1 mM L-serine; competitive; read-out: inhibitor constant Ki; cited from earlier work.
Test [3] concerns the target T1, serine acetyltransferase of cysteine-prototrophic revertant. To be noted: versus wild-type; cited from earlier work.
The target in a further test is serine acetyltransferase. The experiment in a line: Serine acetyltransferase enzyme activity test with and without L-cysteine (inhibitor constant Ki, specific activity). The format is biochemical, E. coli. The note with it: for Ki: inhibitor L-cysteine. The text has this:
Any method which enables the activity of the serine acetyltransferase to be determined in the presence of cysteine can be used for determining the cysteine sensitivity of this enzyme. For example, the serine acetyltransferase activity can be determined using the method described by Kredich and Tomkins, J. Biol. Chem. 241: 4955-4965 (1966). In this test, the enzyme test mixture contains the substrate, L-serine, and the cofactor, acetyl-coenzyme A. The reaction is started by adding enzyme and monitored, in a spectro photometer, by observing the decrease in absorption at 232 nm which is elicited by the cleavage of the thioester bond in the acetyl-coenzyme A.
The above-described enzyme test is suitable for determining the cysteine sensitivity of any serine acetyltransferase enzyme, including the enzymes which have a modified carboxyl terminus. Inhibition of the serine acetyltransferase activity is tested in the presence of differing concentrations of L-cysteine in the reaction mixture. The catalytic activity of the different serine acetyltransferase enzymes is determined in the presence and absence of L-cysteine, and the inhibitor constant, Ki, is ascertained from this (Kredich and Tomkins, J. Biol. Chem., 241, 4955-4965 (1966)).
In order to investigate the biochemical basis of the cysteine secretion of the revertants, the activity of the serine acetyltransferase was determined in vitro, and the ability of cysteine to inhibit the enzyme was measured. For the determination, use was made of S30 extracts (cell homogenates centrifuged at 30,000 g and 4° C. for 20 minutes) of the selected revertants, the starting strains and the comparison strain, E. coli W3110 (ATTC 27325).
The biochemical parameters such as enzyme activity and inhibitor constant, Ki, were determined in an analogous manner to that described in Example 1.
The plasmids resulting from this cloning were designated pACYC184/cysE-Del in accordance with the extent of their deletion (cf. FIG. 9 for the plasmid map). Determination of the enzymic activity and the inhibitor constant, Ki, and also the cross-feeding test, were carried out in analogy with the description in Example 1. DNA sequence analysis was used to confirm that the deletions had been correctly introduced.
Determination of the enzymic activity and of the inhibitor constant Ki, and also the cross-feeding test, were carried out in analogy with the description in Example 1.

In another test the test system is production strain JM15. The experiment in a line: Cysteine production in 1 L fermenter, JM15 with plasmid-encoded cysE alleles. The format is cell-based, E. coli. The note with it: 48 h, JM15 transformed with plasmid. The procedure: Influence of different, plasmid-encoded cysE alleles on the production of L-cysteine or products derived from L-cysteine in a 1 L fermenter using the host strain JM15 20 mL of LB medium (1% tryptone, 0.5% yeast extract, 0.5% NaCl) contained in a 100 mL Erlenmeyer flask were inoculated with a single colony of the production strain JM15 (CGSC#5042) which had been transformed with the respective cysE plasmid.
After having been incubated for 7 hours in a bacterial shaker (30° C., 150 rpm), the respective preliminary cultures were transferred to 100 mL of SM1 medium. The SM1 medium contained 5 g/L glucose, 5 mg/L vitamin B1, 3 g/l KH2 PO4, 12 g/L K2 HPO4, 0.3 g/L MgSO4×7 H2 O, 0.1 g/L NaCl, 5 g/L (NH4)2 SO4, 14.7 mg/L CaCl2×2 H2 O, 2 mg/L FeSO4×2 H2 O, 1 g/L Na3 citrate×2 H2 O, 1 ml/L trace element solution and 25 mg/L tetracycline. The trace element solution was composed of 0.15 g/L Na2 MoO4×2 H2 O, 2.5 g/L H3 BO3, 0.7 g/L CoCl2×6 H2 O, 0.25 g/L CuSO4×5 H2 O, 1.6 g/L MnCl2×4 H2 O and 0.3 g/L ZnSO4×7 H2 O. The cultures were shaken in 1 L Erlenmeyer flasks at 30° C. and at 150 rpm for 17 h. After this incubation, the OD600 was between 4 and 5. The subsequent fermentation was carried out in Braun-Melsungen BIOSTAT M research fermenters. A culturing vessel having a total volume of 2 L was used.
The fermentation medium contained 15 g/L glucose, 5 g/L NaCl, 0.3 g/L MgSO4×7 H2 O, 15 mg/L CaCl2×2 H2 O, 75 mg/L FeSO4×7 H2 O, 1 g/L Na3 citrate×2 H2 O, 1.5 g/L KH2 PO4, 1 mL of trace element solution (see above), 5 mg/L vitamin B1, 2.5 g/L yeast extract (Difco), 2.5 g/L tryptone (Difco) and 25 mg/L tetracycline.
The glucose concentration in the fermenter was initially adjusted to a value of 15 g/L by pumping in a 700 g/L (w/v) (sterilized) glucose solution, and the pH was adjusted to 7.0 by pumping in a 25% NH4 OH solution. After an OD600 of 10 had been reached, 300 mg per hour were supplied from a sterile 100 g/L (w/v) stock solution of thiosulfate. 100 mL of preliminary culture were pumped into the fermenter vessel for the inoculation. The starting volume was approximately 1 L. The cultures were initially stirred at 400 rpm and aerated with 1.5 vvm of compressed air which had been sterilized by passing through a sterile filter. The fermentation was carried out at a temperature of 30° C.
The pH was maintained at a value of 7.0 by means of automatic correction with 25% NH4 OH. The oxygen saturation in the fermentation broth had at no time during the fermentation to fall below 20%; the stirring speed was used to ensure this. The glucose content of the nutrient solution, the optical density and the cysteine content were determined at two- to three-hourly intervals. The glucose content was determined enzymically using a glucose analyzer from YSI. The concentration of the glucose was adjusted to between 10 and 20 g/L by means of continuously feeding in this compound.
The content of cysteine in the medium was determined […] from the cell-free super-natant of the sample using the method of Gaitonde, M. K. (1967), Biochem. J. 104, 627-633.
The fermentation was terminated after 44-50 h.

Another test relates to JM15attλ::cysE strains. The experiment in a line: Cysteine production in 1 L fermenter, chromosomally encoded cysE alleles. Format: cell-based, E. coli. To be noted: single chromosomal copy. As for the experimental part:
For the purpose of being integrated into the chromosomal attachment site (attλ), the cysE alleles cysEIV, cysEX and cysEXI were cloned into the plasmid pRS551 (Simons et al., 1987, Gene 53: 85-96). For this, each cysE allele was amplified by PCR from the corresponding cysE plasmid. The oligonucleotides which were used, i.e. cysE-fwl and cysE-revl, are described in Example 1. The amplification was carried out as described in Example 3. The resulting fragments were cleaved with EcoRI/BamHI, purified through an agarose gel and ligated into vector pRS551 which had been cleaved with EcoRI and BamHI. This afforded the vector pRS551-based recombinant plasmids pRScysEIV, X and XI.
A heterogeneous lambda lysate, which contained recombinant cysE allele-carrying λRS45 derivatives in addition to λRS45 phages, was produced in vivo by homologous recombination by means of preparing a plate lysate on a pRScysE-carrying recA^+ strain (e.g. YMC9, ATCC 3397) using the λRS45 phage (Simons et al., 1987, Gene 53: 85-96).
The cysE strain JM15, which was infected with the heterogeneous lambda lysate and subsequently plated on kanamycin-containing (25 mg/L) LB plates, was used for selecting for the recombinant RS45 derivatives. The lysogenic, kanamycin-resistant clones which were obtained were then tested for their ability to grow on minimal medium plates without cysteine. A clone which was in each case cysteine-prototrophic was selected and used for preparing a homogeneous cysE λ lysate (by means of UV induction, Simons et al., 1987, Gene 53: 85-96).
The JM15 stain was infected with these homogeneous cysE λ lysates which were obtained in each case. The resulting JM15attλ::cysE strains were cultured as described in Example 6. Instead of tetracycline, the respective media in each case contained 25 mg of kanamycin per L as the selection agent.

T1 sequence (P0A9D4 whole entry M256I): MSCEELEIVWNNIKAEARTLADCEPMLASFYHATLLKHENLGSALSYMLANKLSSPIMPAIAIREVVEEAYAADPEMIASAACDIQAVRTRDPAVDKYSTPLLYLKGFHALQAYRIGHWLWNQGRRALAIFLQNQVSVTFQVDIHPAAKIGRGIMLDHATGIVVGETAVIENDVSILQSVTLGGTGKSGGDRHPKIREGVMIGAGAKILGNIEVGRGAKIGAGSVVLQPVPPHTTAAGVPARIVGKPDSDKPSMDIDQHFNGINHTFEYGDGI

As for `N[C@@H](CS)C(=O)O` [L-cysteine], the Ki in test [1] was about 10 µM; in test [2], 1.1 µM. For the same molecule, the feedback resistance elevated in test [3] is reported as 10 fold.

B1: cysEIV: double mutant Ala237->Val237, Gly238->Ser238 (protein, UniProt P0A9D4 1-273, looked up, variant A237V G238S)
Serine acetyltransferase: MSCEELEIVWNNIKAEARTLADCEPMLASFYHATLLKHENLGSALSYMLANKLSSPIMPAIAIREVVEEAYAADPEMIASAACDIQAVRTRDPAVDKYSTPLLYLKGFHALQAYRIGHWLWNQGRRALAIFLQNQVSVTFQVDIHPAAKIGRGIMLDHATGIVVGETAVIENDVSILQSVTLGGTGKSGGDRHPKIREGVMIGAGAKILGNIEVGRGAKIGAGSVVLQPVPPHTTAVSVPARIVGKPDSDKPSMDMDQHFNGINHTFEYGDGI
For B1, the inhibitory constant (Ki) at serine acetyltransferase (Table 1a, 1 mM L-serine, 0.1 mM acetyl-CoA) stood at 40 µM; on serine acetyltransferase (Table 4, alleles from site-specific mutagenesis) it was 40 µM. Further, the spec. act. with serine acetyltransferase (Table 1a, serine acetyltransferase activity) is 0.170 µmol/min/mg. In the test with production strain JM15, this molecule showed a Cysteine yield of 1.6 g/L. Also, the yields of cysteine in the test on JM15attλ::cysE strains is 0.5 g/L.
